Experimental data: patent publication CN113150157A

Assays:
表皮生长因子(EGF) [1] = biological target: 表皮生长因子(EGF) (UniProt P01133); test: sandwich chemiluminescence immunoassay, AntiVEGF_C capture and AntiVEGF_N-HRP detection, EGF at 30ng/ml; apparent VEGF concentration
[2] = biological target: 人成纤维细胞生长因子2(FGF2) (human) (UniProt P09038); test: sandwich chemiluminescence immunoassay, AntiVEGF_C capture and AntiVEGF_N-HRP detection, FGF2 at 20μg/ml; apparent VEGF concentration
表皮生长因子(EGF) [3] = biological target: 表皮生长因子(EGF) (UniProt P01133); test: sandwich chemiluminescence immunoassay, AntiVEGF_C capture and AntiVEGF_N-HRP detection, EGF at 30ng/ml (specificity test)
[4] = biological target: 人成纤维细胞生长因子2(FGF2) (human) (UniProt P09038); test: sandwich chemiluminescence immunoassay, AntiVEGF_C capture and AntiVEGF_N-HRP detection, FGF2 at 20μg/ml (specificity test)

UniProt P01133, sequence (P01133 971-1023 limits assumed): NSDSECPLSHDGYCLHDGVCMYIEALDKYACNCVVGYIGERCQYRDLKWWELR
UniProt P09038, sequence (P09038 143-288 limits assumed): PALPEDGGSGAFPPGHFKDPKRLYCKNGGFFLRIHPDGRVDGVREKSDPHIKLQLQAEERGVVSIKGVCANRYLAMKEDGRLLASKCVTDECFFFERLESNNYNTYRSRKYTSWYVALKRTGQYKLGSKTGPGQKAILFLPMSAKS

- 浓度值 (检测表观值) (表皮生长因子(EGF) [1]): 6.57 pg/mL
- 浓度值 (检测表观值) [2]: 11.3 pg/mL
- 发光值 (表皮生长因子(EGF) [3]): 8770 RLU
- 发光值 [4]: 14900 RLU
B1: 单克隆抗体AntiVEGF_C (antibody, V domains shown)
VH: EVQLVESGGGLVQPGGSRKLSCAASGFTFSSFGMHWVRQAPEKGLEWVAFINSDSSAFYYADTVQDRFTISRDNPKNTLFLQMTSLRSEDTAMYYCARAGNHYYGGAYWGQGTLVTVSA
VL: QIVLSQSPAILSASPGEKVTMTCRASSSVSYMHWYQQRPGSSPKPWIYDTSNLASGVPVRFSGSGSGTSYSLTISRVEVEDAATYYCQQWSRHPPITFGSGTKLEIK
